# According to patent US20030068675, “Position dependent recognition of GNN nucleotide triplets by zinc fingers” (published 2003):
# T1: ZFP SBS#711 (synthetic)
# T1 chain: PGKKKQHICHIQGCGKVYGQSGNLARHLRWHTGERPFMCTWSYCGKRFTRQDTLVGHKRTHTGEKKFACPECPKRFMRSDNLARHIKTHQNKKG
# T2: ZFP SBS#709 (synthetic)
# T2 chain: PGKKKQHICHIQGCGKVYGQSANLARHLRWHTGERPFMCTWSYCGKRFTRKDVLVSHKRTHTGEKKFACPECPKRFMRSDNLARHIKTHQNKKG
# T3: ZFP SBS#601 (synthetic)
# T3 chain: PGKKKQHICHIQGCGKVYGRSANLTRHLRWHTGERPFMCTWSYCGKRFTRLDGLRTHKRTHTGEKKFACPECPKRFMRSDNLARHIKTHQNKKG
# T4: ZFP SBS#708 (synthetic)
# T4 chain: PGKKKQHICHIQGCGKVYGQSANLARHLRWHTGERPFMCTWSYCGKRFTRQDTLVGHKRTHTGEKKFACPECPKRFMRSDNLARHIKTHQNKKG
# T5: ZFP SBS#602 (synthetic)
# T5 chain: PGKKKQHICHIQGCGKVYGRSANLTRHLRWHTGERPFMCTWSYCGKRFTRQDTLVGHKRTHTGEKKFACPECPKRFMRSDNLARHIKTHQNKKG
# T6: ZFP SBS#722 (synthetic)
# T6 chain: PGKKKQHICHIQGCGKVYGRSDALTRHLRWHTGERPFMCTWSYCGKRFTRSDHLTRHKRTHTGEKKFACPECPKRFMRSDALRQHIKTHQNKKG
# T7: ZFP SBS#692 (synthetic, UniProt P08047)
# T7 chain: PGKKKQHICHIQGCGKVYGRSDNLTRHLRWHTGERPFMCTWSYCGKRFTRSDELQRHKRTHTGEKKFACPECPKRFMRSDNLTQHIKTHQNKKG
# T8: ZFP SBS#689 (synthetic)
# T8 chain: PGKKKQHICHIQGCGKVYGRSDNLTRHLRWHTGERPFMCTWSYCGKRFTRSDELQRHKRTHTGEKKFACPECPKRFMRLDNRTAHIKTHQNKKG
# T9: ZFP SBS#694 (synthetic)
# T9 chain: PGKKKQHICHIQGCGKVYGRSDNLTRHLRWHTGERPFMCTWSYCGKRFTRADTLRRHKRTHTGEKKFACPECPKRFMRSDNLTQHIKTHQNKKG
# T10: ZFP SBS#693 (synthetic)
# T10 chain: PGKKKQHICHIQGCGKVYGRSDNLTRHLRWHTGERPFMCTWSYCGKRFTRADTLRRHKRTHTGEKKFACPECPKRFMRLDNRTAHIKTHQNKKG
# T11: ZFP SBS#720 (synthetic)
# T11 chain: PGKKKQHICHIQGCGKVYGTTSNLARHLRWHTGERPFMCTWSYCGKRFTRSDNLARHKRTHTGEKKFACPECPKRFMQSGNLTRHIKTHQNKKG
# T12: ZFP SBS#706 (synthetic, UniProt P08047)
# T12 chain: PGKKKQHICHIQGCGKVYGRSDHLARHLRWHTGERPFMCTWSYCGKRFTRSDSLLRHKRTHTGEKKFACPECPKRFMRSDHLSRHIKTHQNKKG
# T13: ZFP SBS#705 (synthetic, UniProt P08047)
# T13 chain: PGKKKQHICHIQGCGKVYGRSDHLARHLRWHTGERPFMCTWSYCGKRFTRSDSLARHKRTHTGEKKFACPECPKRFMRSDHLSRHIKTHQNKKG
# T14: ZFP SBS#698 (synthetic)
# T14 chain: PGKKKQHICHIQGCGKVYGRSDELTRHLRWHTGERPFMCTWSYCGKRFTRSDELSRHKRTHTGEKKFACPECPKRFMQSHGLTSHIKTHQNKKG
# T15: ZFP SBS#697 (synthetic)
# T15 chain: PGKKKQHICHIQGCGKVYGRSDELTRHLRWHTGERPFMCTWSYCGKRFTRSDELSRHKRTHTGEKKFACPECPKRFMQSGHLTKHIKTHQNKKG
# T16: ZFP SBS#702 (synthetic)
# T16 chain: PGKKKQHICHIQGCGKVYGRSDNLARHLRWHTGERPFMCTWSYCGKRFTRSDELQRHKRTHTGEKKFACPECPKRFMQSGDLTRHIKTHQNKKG
# T17: ZFP SBS#716 (synthetic)
# T17 chain: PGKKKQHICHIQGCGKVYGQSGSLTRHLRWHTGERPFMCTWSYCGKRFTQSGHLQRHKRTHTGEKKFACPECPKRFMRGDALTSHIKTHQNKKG
# T18: ZFP SBS#718 (synthetic)
# T18 chain: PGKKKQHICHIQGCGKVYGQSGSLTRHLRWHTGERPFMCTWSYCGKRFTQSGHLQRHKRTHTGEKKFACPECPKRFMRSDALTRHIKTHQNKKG
# T19: ZFP SBS#714 (synthetic)
# T19 chain: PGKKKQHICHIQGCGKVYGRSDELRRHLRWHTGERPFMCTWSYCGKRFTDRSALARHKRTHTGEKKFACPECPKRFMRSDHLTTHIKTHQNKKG
# T20: ZFP SBS#715 (synthetic)
# T20 chain: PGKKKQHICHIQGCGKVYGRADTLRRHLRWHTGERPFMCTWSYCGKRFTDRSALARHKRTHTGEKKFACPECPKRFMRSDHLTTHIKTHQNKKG
# T21: ZFP SBS#724 (synthetic)
# T21 chain: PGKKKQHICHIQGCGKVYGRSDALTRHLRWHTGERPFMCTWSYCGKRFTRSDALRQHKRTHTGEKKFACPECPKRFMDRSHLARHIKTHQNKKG
# T22: ZFP SBS#719 (synthetic)
# T22 chain: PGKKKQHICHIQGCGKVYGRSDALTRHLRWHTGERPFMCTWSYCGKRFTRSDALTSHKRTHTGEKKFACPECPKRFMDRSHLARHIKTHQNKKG
# T23: ZFP SBS#695 (synthetic)
# T23 chain: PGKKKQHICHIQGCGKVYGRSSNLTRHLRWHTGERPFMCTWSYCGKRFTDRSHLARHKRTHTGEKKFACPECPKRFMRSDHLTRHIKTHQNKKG
# Tests used:
# Test in all cases: EMSA
# Settings in all cases: tags: MBP fusion
# ZFP SBS#711 = target: T1, ZFP SBS#711
# In short: (§1)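 Purified ZFP was titrated against labeled double-stranded target (1 nM or lower, at least 10-fold below expected Kd) carrying the natural binding site with flanks. Binding buffer was 10 mM Tris pH 7.5, 100 mM KCl, 1 mM MgCl2, 0.1 mM ZnCl2, 5 mM DTT, 10% glycerol, 0.02% BSA, with equilibration for at least 45 min. Bound and free target were separated on a 10% polyacrylamide gel.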
# ZFP SBS#709 = target: T2, ZFP SBS#709
# In short: as §1
# ZFP SBS#601 = target: T3, ZFP SBS#601
# In short: as §1
# ZFP SBS#708 = target: T4, ZFP SBS#708
# In short: as §1
# ZFP SBS#600 = ZFP SBS#600 (synthetic)
# In short: as §1
# ZFP SBS#602 = target: T5, ZFP SBS#602
# In short: as §1
# ZFP SBS#710 = ZFP SBS#710 (synthetic)
# In short: as §1
# ZFP SBS#603 = ZFP SBS#603 (synthetic)
# In short: as §1
# ZFP SBS#722 = target: T6, ZFP SBS#722
# In short: as §1
# ZFP SBS#692 = target: T7, ZFP SBS#692
# In short: as §1
# ZFP SBS#689 = target: T8, ZFP SBS#689
# In short: as §1
# ZFP SBS#694 = target: T9, ZFP SBS#694
# In short: as §1
# ZFP SBS#693 = target: T10, ZFP SBS#693
# In short: as §1
# ZFP SBS#726 = ZFP SBS#726 (synthetic)
# In short: as §1
# ZFP SBS#720 = target: T11, ZFP SBS#720
# In short: as §1
# ZFP SBS#706 = target: T12, ZFP SBS#706
# In short: as §1
# ZFP SBS#705 = target: T13, ZFP SBS#705
# In short: as §1
# ZFP SBS#374 = ZFP SBS#374 (synthetic)
# In short: as §1
# ZFP SBS#427 = ZFP SBS#427 (synthetic)
# In short: as §1
# ZFP SBS#425 = ZFP SBS#425 (synthetic)
# In short: as §1
# ZFP SBS#424 = ZFP SBS#424 (synthetic)
# In short: as §1
# ZFP SBS#565 = ZFP SBS#565 (synthetic)
# In short: as §1
# ZFP SBS#426 = ZFP SBS#426 (synthetic)
# In short: as §1
# ZFP SBS#698 = target: T14, ZFP SBS#698
# In short: as §1
# ZFP SBS#697 = target: T15, ZFP SBS#697
# In short: as §1
# ZFP SBS#699 = ZFP SBS#699 (synthetic)
# In short: as §1
# ZFP SBS#700 = ZFP SBS#700 (synthetic)
# In short: as §1
# ZFP SBS#725 = ZFP SBS#725 (synthetic)
# In short: as §1
# ZFP SBS#701 = ZFP SBS#701 (synthetic)
# In short: as §1
# ZFP SBS#702 = target: T16, ZFP SBS#702
# In short: as §1
# ZFP SBS#716 = target: T17, ZFP SBS#716
# In short: as §1
# ZFP SBS#717 = ZFP SBS#717 (synthetic)
# In short: as §1
# ZFP SBS#718 = target: T18, ZFP SBS#718
# In short: as §1
# ZFP SBS#714 = target: T19, ZFP SBS#714
# In short: as §1
# ZFP SBS#715 = target: T20, ZFP SBS#715
# In short: as §1
# ZFP SBS#724 = target: T21, ZFP SBS#724
# In short: as §1
# ZFP SBS#719 = target: T22, ZFP SBS#719
# In short: as §1
# ZFP SBS#731 = ZFP SBS#731 (synthetic)
# In short: as §1
# ZFP SBS#695 = target: T23, ZFP SBS#695
# In short: as §1
# Chain of ZFP SBS#726 (synthetic) (chain, as listed by the source): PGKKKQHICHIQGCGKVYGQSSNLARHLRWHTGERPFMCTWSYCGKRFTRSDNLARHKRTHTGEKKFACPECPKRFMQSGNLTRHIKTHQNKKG
# Chain of ZFP SBS#701 (synthetic) (chain, as listed by the source): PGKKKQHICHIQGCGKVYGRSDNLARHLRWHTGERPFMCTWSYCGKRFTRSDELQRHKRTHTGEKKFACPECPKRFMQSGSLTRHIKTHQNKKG
# Chain of ZFP SBS#731 (synthetic) (chain, as listed by the source): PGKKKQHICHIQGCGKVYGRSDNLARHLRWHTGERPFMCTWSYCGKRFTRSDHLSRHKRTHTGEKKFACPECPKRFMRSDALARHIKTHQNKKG
# Chain of ZFP SBS#710 (synthetic) (chain, as listed by the source): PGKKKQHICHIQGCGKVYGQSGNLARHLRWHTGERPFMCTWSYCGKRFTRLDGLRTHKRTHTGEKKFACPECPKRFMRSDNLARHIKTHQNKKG
# Chain of ZFP SBS#424 (synthetic) (chain, as listed by the source): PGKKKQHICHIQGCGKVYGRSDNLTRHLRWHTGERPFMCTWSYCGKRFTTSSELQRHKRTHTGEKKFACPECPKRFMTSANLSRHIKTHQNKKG
# Chain of ZFP SBS#374 (synthetic) (chain, as listed by the source): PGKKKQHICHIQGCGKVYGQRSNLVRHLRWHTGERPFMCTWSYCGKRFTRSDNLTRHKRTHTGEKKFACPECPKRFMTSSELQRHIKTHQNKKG
# Chain of ZFP SBS#603 (synthetic) (chain, as listed by the source): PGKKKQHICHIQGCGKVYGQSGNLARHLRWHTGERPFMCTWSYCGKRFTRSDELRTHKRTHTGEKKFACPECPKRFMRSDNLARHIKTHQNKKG
# Chain of ZFP SBS#700 (synthetic) (chain, as listed by the source): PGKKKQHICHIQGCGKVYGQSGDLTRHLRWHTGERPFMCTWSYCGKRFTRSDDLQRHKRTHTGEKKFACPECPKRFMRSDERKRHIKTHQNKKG
# Chain of ZFP SBS#426 (synthetic) (chain, as listed by the source): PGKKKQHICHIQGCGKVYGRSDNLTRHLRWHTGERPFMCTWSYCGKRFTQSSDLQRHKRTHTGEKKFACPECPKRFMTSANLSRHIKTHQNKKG
# Chain of ZFP SBS#427 (synthetic) (chain, as listed by the source): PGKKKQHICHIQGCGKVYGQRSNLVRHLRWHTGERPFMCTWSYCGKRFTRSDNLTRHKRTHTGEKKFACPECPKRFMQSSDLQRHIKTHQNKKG
# Chain of ZFP SBS#565 (synthetic) (chain, as listed by the source): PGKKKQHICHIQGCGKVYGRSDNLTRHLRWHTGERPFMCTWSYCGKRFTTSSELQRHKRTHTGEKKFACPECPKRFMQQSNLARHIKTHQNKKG
# Chain of ZFP SBS#699 (synthetic) (chain, as listed by the source): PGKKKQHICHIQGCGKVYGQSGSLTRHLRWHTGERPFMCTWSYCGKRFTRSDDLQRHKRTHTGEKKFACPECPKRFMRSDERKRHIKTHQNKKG
# Chain of ZFP SBS#600 (synthetic) (chain, as listed by the source): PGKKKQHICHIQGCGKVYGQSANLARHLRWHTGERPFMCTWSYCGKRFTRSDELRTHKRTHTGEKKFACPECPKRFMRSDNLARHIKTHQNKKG
# Chain of ZFP SBS#725 (synthetic) (chain, as listed by the source): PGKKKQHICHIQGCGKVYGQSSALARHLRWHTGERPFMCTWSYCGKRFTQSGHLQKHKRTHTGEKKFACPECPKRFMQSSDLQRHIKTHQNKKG
binder,measurement,setting,value
GAGTCGGAA (dsDNA) DNA 1: GAGTCGGAA DNA 2: TTCCGACTC,Kd,ZFP SBS#711,400 nM
same,Kd,ZFP SBS#709,400 nM
same,Kd,ZFP SBS#601,607 nM
same,Kd,ZFP SBS#708,300 nM
same,Kd,ZFP SBS#600,207 nM
same,Kd,ZFP SBS#602,617 nM
same,Kd,ZFP SBS#710,400 nM
same,Kd,ZFP SBS#603,167 nM
ATGGGGGTGG (dsDNA) DNA 1: ATGGGGGTGG DNA 2: CCACCCCCAT,Kd,ZFP SBS#722,0.7 nM
AAGGCGGAGA (dsDNA) DNA 1: AAGGCGGAGA DNA 2: TCTCCGCCTT,Kd,ZFP SBS#692,51 nM
same,Kd,ZFP SBS#689,82.5 nM
same,Kd,ZFP SBS#694,28.5 nM
same,Kd,ZFP SBS#693,95 nM
GAAGAGGATG (dsDNA) DNA 1: GAAGAGGATG DNA 2: CATCCTCTTC,Kd,ZFP SBS#726,1.5 nM
same,Kd,ZFP SBS#720,1.6 nM
GGGGTGGGGC (dsDNA) DNA 1: GGGGTGGGGC DNA 2: GCCCCACCCC,Kd,ZFP SBS#706,0.05 nM
same,Kd,ZFP SBS#705,0.01 nM
GCTGAGGAA (dsDNA) DNA 1: GCTGAGGAA DNA 2: TTCCTCAGC,Kd,ZFP SBS#374,3.3 nM
same,Kd,ZFP SBS#427,1 nM
GATGCTGAG (dsDNA) DNA 1: GATGCTGAG DNA 2: CTCAGCATC,Kd,ZFP SBS#425,25 nM
same,Kd,ZFP SBS#424,100 nM
same,Kd,ZFP SBS#565,100 nM
same,Kd,ZFP SBS#426,5.5 nM
TGAGCGGCGG (dsDNA) DNA 1: TGAGCGGCGG DNA 2: CCGCCGCTCA,Kd,ZFP SBS#698,300 nM
same,Kd,ZFP SBS#697,200 nM
GCGGCGGCAG (dsDNA) DNA 1: GCGGCGGCAG DNA 2: CTGCCGCCGC,Kd,ZFP SBS#699,21.5 nM
same,Kd,ZFP SBS#700,45 nM
GCTTGAGTTA (dsDNA) DNA 1: GCTTGAGTTA DNA 2: TAACTCAAGC,Kd,ZFP SBS#725,3000 nM
GCAGCGGAGC (dsDNA) DNA 1: GCAGCGGAGC DNA 2: GCTCCGCTGC,Kd,ZFP SBS#701,50.5 nM
same,Kd,ZFP SBS#702,73.5 nM
TTGGGAGCAC (dsDNA) DNA 1: TTGGGAGCAC DNA 2: GTGCTCCCAA,Kd,ZFP SBS#716,200 nM
same,Kd,ZFP SBS#717,150 nM
same,Kd,ZFP SBS#718,108 nM
TGGGTCGCGG (dsDNA) DNA 1: TGGGTCGCGG DNA 2: CCGCGACCCA,Kd,ZFP SBS#714,200 nM
same,Kd,ZFP SBS#715,0.46 nM
GGCATGGTGG (dsDNA) DNA 1: GGCATGGTGG DNA 2: CCACCATGCC,Kd,ZFP SBS#724,2.5 nM
same,Kd,ZFP SBS#719,20 nM
GTGGGGGAGA (dsDNA) DNA 1: GTGGGGGAGA DNA 2: TCTCCCCCAC,Kd,ZFP SBS#731,12 nM
GGGGGCGAGC (dsDNA) DNA 1: GGGGGCGAGC DNA 2: GCTCGCCCCC,Kd,ZFP SBS#695,850 nM
